# T1: recombinant human FLT3 (Homo sapiens, UniProt P36888)
# T1 construct: purchased Sino Biological 10445-H08H
# T1 sequence (P36888 27-541 limits assumed): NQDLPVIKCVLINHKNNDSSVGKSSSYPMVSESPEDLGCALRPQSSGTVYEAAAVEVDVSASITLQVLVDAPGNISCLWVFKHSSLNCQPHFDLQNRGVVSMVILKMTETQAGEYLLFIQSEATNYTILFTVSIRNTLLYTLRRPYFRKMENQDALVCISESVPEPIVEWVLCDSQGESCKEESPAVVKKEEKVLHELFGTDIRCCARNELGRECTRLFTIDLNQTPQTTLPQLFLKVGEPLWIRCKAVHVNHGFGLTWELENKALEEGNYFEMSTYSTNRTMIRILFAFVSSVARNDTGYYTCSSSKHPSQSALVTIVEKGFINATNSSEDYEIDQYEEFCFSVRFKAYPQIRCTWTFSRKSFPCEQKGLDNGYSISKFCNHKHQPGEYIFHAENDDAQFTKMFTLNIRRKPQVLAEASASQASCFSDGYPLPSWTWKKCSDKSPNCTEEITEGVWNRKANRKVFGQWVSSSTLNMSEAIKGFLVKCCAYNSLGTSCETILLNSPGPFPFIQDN
# T2: Ba/F3 cells expressing human wildtype FLT3 (Homo sapiens, UniProt P36888)
# T2 construct: expressed in transfected cells; host or cells: Ba/F3 cells, retrovirally transduced with MSCV-IRES-YFP (pMIY) vector
# T2 sequence (P36888 27-993): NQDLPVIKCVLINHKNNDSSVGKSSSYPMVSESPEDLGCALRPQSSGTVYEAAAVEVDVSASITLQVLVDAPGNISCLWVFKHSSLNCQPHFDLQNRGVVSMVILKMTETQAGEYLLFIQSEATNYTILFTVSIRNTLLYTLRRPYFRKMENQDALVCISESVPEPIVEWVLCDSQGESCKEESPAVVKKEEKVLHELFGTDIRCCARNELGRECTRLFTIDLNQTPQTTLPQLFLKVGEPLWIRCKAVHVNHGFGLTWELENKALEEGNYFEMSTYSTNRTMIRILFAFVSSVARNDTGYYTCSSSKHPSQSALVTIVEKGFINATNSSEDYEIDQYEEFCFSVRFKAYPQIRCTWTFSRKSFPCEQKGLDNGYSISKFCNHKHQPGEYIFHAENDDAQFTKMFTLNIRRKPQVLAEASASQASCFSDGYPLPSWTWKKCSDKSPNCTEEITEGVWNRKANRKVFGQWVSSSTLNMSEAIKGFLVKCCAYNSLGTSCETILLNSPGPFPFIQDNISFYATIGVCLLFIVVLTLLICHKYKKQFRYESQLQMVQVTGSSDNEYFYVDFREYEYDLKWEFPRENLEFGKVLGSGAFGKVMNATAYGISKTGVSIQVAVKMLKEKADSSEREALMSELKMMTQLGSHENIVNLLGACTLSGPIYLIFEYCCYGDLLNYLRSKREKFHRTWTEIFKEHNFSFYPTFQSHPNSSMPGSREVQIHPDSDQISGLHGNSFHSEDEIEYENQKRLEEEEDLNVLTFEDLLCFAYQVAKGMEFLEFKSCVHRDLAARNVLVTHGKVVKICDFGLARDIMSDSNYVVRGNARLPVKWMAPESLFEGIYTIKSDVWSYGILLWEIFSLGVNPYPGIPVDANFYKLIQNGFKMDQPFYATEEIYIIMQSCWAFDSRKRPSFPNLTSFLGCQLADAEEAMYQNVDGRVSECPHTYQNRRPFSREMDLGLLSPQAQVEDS
# Columns and labels:
# recombinant human FLT3 = target: T1, recombinant human FLT3; assay: ELISA affinity to recombinant human FLT3; type: binding; settings: chimeric Ab clones
# Text: FIG. 1: Evaluation of epitope specificity and internalization capability of anti-FLT3 monoclonal antibodies. (A) Affinity of seven anti-FLT3 monoclonal antibody (mab) clones to recombinant human FLT3 measured in enzyme-linked immunosorbent assay (ELISA) normalized to the binding of the antibodies to BSA control. […] (B) Schematic FLT3 receptor. Black arrows indicate common mutations and blue arrows indicate the three identified epitopes of seven anti-FLT3 antibodies analyzed in linear epitope mapping by PEPperPRINT. Figure was created with BioRender.com. (C) Binding and temperature induced internalization of anti-FLT3 antibodies in Ba/F3 cells expressing human wildtype FLT3. Internalization was induced by incubation for 30 min at 37° C. (grey) compared to 4° C. (black). Remaining surface-bound antibody was detected in flow cytometry. MFI was normalized to control human IgG1 binding. MFI=mean fluorescence intensity. […] (D) Cell surface binding of 20D9 mab or control human IgG1 antibody to Ba/F3 cells stably expressing pMIY (Ba/F3-pMIY) empty vector (ev), human wildtype (hFLT3 wt) or ITD mutant human FLT3 (hFLT3ITD) was measured in flow cytometry. Mean±s.d. of n=3. (E) Temperature induced internalization of 4B12 mab in MOLM-13 (FLT3 positive) cells after 30 min incubation at 37° C. compared to 4° C. and HL-60 (FLT3 negative) after 37° C. incubation assessed in immunofluorescence staining. Red=FLT3 staining by 4B12, Green=membrane staining by Vybrant DiO, Blue=nuclear staining by DAPI. Scale bar 5 μm. Representative pictures are shown. (F) Cell surface binding of 20D9 mab or control hIgG1 antibody to Ba/F3-pMIY ev, hFLT3 wt, murine (mFLT3 wt) or cynomolgues monkey FLT3 (cynoFLT3 wt) was measured in flow cytometry. Mean±s.d. of n=3. (G) Cell surface binding of 20D9 mab or control hIgG1 antibody to Ba/F3-PMIY ev, hFLT3 wt or epitope mutant FLT3 (hFLT3/S50P/P54R) measured in flow cytometry. Mean±s.d. of n=3. (H) Cell surface binding of 20D9 mab or control hIgG1 antibody to Ba/F3-PMIY ev, hFLT3 wt or human CD64 (hCD64) measured in flow cytometry. Mean±s.d. of n=3.
# Maxisorp plates were coated with human recombinant FLT3 protein (10445-H08H, Sino Biological). Chimeric (20D9) or humanized anti-FLT3 monoclonal antibodies (in house) and secondary alkaline phosphatase conjugated rabbit anti-human IgG antibody (309-055-008, Jackson Immunoresearch) were used. For detection, Attophos Fluorescent Substrate System (S1000, Promega) was applied. The fluorescence was read with excitation of 405 nm and emission at 500-550 nm. The calculation of the dissociation constant KD was performed using GraphPad Prism version 9.4.0.
# [1] = target: T2, Ba/F3 cells expressing human wildtype FLT3; assay: Temperature induced internalization in Ba/F3-FLT3, flow cytometry; type: cell-based; settings: 30 min at 37° C. compared to 4° C.
# Text: FIG. 1: Evaluation of epitope specificity and internalization capability of anti-FLT3 monoclonal antibodies. (A) Affinity of seven anti-FLT3 monoclonal antibody (mab) clones to recombinant human FLT3 measured in enzyme-linked immunosorbent assay (ELISA) normalized to the binding of the antibodies to BSA control. […] (B) Schematic FLT3 receptor. Black arrows indicate common mutations and blue arrows indicate the three identified epitopes of seven anti-FLT3 antibodies analyzed in linear epitope mapping by PEPperPRINT. Figure was created with BioRender.com. (C) Binding and temperature induced internalization of anti-FLT3 antibodies in Ba/F3 cells expressing human wildtype FLT3. Internalization was induced by incubation for 30 min at 37° C. (grey) compared to 4° C. (black). Remaining surface-bound antibody was detected in flow cytometry. MFI was normalized to control human IgG1 binding. MFI=mean fluorescence intensity. […] (D) Cell surface binding of 20D9 mab or control human IgG1 antibody to Ba/F3 cells stably expressing pMIY (Ba/F3-pMIY) empty vector (ev), human wildtype (hFLT3 wt) or ITD mutant human FLT3 (hFLT3ITD) was measured in flow cytometry. Mean±s.d. of n=3. (E) Temperature induced internalization of 4B12 mab in MOLM-13 (FLT3 positive) cells after 30 min incubation at 37° C. compared to 4° C. and HL-60 (FLT3 negative) after 37° C. incubation assessed in immunofluorescence staining. Red=FLT3 staining by 4B12, Green=membrane staining by Vybrant DiO, Blue=nuclear staining by DAPI. Scale bar 5 μm. Representative pictures are shown. (F) Cell surface binding of 20D9 mab or control hIgG1 antibody to Ba/F3-pMIY ev, hFLT3 wt, murine (mFLT3 wt) or cynomolgues monkey FLT3 (cynoFLT3 wt) was measured in flow cytometry. Mean±s.d. of n=3. (G) Cell surface binding of 20D9 mab or control hIgG1 antibody to Ba/F3-PMIY ev, hFLT3 wt or epitope mutant FLT3 (hFLT3/S50P/P54R) measured in flow cytometry. Mean±s.d. of n=3. (H) Cell surface binding of 20D9 mab or control hIgG1 antibody to Ba/F3-PMIY ev, hFLT3 wt or human CD64 (hCD64) measured in flow cytometry. Mean±s.d. of n=3. […]
Affinity Kd (recombinant human FLT3),Internalization in Ba/F3-FLT3 [1],Molecule
0.03191 µg/mL,86%,"4B12: chimeric anti-FLT3 antibody from rat; VH SEQ ID NO: 9, VL SEQ ID NO: 10 (antibody, V domains shown, Clone 4B12, heavy chain variable region without a signal sequence; Clone 4B12, light chain variable region without a signal seqeunce) VH: QVQLQQSGPGLVQPSQTLSLTCTVSGFSLTSYNVNWVRQPPGKGLEWIGAMWRGGGTDYNPALKSRLSISRDTSKSQVFLKMNRLQTEDTAIYFCTRGFGDYWGQGVMVTVSSA VL: DIQMTQTPLSLSVAIGQSASISCKSSQSLKYSDGKTYLNWVFQSPGQSPKRLIYQVSKLDSGVPDRFSGTGSETDFTLKISRVEAEDLGVYYCCQGSYSPSTFGAGTKLELKR"
0.02188 µg/mL,79%,"20D9: chimeric (rat variable regions, human IgG1) anti-FLT3 monoclonal antibody; VH SEQ ID NO: 5, VL SEQ ID NO: 6 (antibody, V domains shown, Clone 20D9, heavy chain variable region without a signal seqeunce; Clone 20D9, light chain variable region without a signal seqeunce) VH: DVMLVESGGGLVQPGRSLKLSCVASGFTFNNYWMTWIRQAPGKGLEWIASITKTGGGTYYPDSVKGRFTISRDNAKSTLYLQMNSLRSEDTATYYCTTLQQLGVMDAWGQGASVTVSSA VL: DVQMTQSPSVLSASVGDRITLNCKASQNINKELNWYQQKLGEAPKLLIYNTNNLQTGIPSRFSGSGSGTDYTLTISSLQPEDVATYFCFQHKSWPLTFGSGTKLEIKR"

# From patent US20250049939A1, “NOVEL FLT3 ANTIBODIES AND ANTIBODY-DRUG-CONJUGATES BASED THEREON, THERAPEUTIC METHODS AND USES THEREOF IN COMBINATION WITH TYROSINE KINASE INHIBITORS” (TUBULIS GmbH, priority 2021, published 2025)
